First the molecules themselves.
B1: EWE-hC3Nb1 (VHH)
VHH: QVQLVETGGGLVQAGGSLRLSCAASGSIFSINAMGWFRQAPGKEREFVATINRSGGRTYYADSVKGRFTISRDNGKNMVYLQMHSLKPEDTAIYYCAAGTGWSPQTDNEYNYWGQGTQVTVSS
B2: EWEµH (other)
chain: EWEQVQLVETGGGLVQAGGSLRLSCAASGSIFSINAMGWFRQAPGKEREFVATINRSGGRTYYADSVKGRFTISRDNGKNMVYLQMHSLKPEDTAIYYCAAGTGWSPQTDNEYNYWGQGTQVTVSSGGGGSGGGGSGGGGSGGGGSRPCGHPGDTPFGTFTLTGGNVFEYGVKAVYTCNEGYQLLGEINYRECDTDGWTNDIPICEVVKCLPVTAPENGKIVSSAMEPDREYHFGQAVRFVCNSGYKIEGDEEMHCSDDGFWSKEKPKCVEISCKSPDVINGSPISQKIIYKENERFQYKCNMGYEYSERGDAVCTESGWRPLPSCEEAGGGGGGGGGGGGGKCGPPPPIDNGDITSFPLSVYAPASSVEYQCQNLYQLEGNKRITCRNGQWSEPPKCLHPCVISREIMENYNIALRWTAKQKLYSRTGESVEFVCKRGYRLSSRSHTLRTTCWDGKLEYPTCAKRENLYFQG
B3: EWEnH (other)
chain: EWEQVQLVETGGGLVQAGGSLRLSCAASGSIFSINAMGWFRQAPGKEREFVATINRSGGRTYYADSVKGRFTISRDNGKNMVYLQMHSLKPEDTAIYYCAAGTGWSPQTDNEYNYWGQGTQVTVSSGGGGSGGGGSGGGGSGGGGSRPCGHPGDTPFGTFTLTGGNVFEYGVKAVYTCNEGYQLLGEINYRECDTDGWTNDIPICEVVKCLPVTAPENGKIVSSAMEPDREYHFGQAVRFVCNSGYKIEGDEEMHCSDDGFWSKEKPKCVEISCKSPDVINGSPISQKIIYKENERFQYKCNMGYEYSERGDAVCTESGWRPLPSCEEA

The target in the experiment is C3b (UniProt P01024 23-667; P01024 749-1663). Kind of experiment: BLI.
Sequence of C3b (P01024 23-667, chain 1 of 2): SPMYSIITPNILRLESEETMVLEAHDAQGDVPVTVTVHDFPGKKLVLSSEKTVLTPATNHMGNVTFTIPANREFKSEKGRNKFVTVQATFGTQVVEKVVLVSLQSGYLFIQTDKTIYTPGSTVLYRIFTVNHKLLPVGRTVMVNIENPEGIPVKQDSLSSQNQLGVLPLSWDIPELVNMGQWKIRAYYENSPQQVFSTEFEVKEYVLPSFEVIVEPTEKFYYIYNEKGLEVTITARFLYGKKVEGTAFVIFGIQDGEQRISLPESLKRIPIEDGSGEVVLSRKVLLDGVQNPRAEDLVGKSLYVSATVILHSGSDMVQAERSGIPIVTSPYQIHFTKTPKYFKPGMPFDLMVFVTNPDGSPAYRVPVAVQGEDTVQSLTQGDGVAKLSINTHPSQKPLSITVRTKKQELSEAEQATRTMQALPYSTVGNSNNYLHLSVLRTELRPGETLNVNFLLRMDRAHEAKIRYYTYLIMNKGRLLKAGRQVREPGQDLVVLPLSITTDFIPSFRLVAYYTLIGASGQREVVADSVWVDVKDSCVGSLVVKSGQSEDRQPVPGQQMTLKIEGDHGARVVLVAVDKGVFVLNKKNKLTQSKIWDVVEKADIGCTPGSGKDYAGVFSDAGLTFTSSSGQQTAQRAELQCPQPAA
Sequence of C3b (P01024 749-1663, chain 2 of 2): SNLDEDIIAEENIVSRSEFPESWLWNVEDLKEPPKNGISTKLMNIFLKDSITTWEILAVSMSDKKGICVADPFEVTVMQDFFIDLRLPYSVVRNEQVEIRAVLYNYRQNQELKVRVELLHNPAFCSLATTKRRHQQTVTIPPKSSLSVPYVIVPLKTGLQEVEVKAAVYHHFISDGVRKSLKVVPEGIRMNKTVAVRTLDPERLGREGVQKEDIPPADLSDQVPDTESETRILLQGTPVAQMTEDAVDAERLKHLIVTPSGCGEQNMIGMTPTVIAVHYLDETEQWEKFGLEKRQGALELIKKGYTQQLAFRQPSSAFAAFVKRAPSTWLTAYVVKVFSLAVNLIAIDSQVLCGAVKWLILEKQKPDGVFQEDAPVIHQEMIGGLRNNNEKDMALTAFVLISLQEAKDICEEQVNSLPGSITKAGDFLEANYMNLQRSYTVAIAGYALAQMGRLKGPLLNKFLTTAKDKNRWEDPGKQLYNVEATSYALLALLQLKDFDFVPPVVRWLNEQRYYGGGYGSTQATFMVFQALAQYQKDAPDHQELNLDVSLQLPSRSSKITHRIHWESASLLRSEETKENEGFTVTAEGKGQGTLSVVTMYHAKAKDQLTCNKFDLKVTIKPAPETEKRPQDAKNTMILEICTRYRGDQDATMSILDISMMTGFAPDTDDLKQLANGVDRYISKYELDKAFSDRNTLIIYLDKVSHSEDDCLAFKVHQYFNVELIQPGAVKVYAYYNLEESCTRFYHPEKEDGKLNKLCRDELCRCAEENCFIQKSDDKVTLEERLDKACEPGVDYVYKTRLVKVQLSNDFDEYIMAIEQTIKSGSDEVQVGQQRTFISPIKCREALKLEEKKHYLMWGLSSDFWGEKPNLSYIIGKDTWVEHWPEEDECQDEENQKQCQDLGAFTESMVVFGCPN
For B1, binding was put at a Kd of 3 nM. In other words, the single-digit nanomolar range. The molecule B2 displayed a dissociation constant Kd of 0.4 nM. Compared with the last molecule, the Kd is about 7.5-fold lower. With B3 the figure was 7.1 nM.

These data come from patent publication US20240376186A1 (published 2024).
